Measurements from patent US20120316071A1 (published 2012).

B1: Fab VH5-51_IGHD5-18*01>3_IGHJ4*01 G100K/G104T G24T/S28R/G35V (H:KT TRV) & V3-4_IGLJ1*01 V91L/S96P S57Q (Fab, V domains shown)
VH: EVQLVQSGAEVKKPGESLKISCKTSGYRFTSYWIVWVRQMPGKGLEWMGIIYPGDSDTRYSPSFQGQVTISADKSISTAYLQWSSLKASDTAMYYCARRKYSYTYDYFDYWGQGTLVTVSS
VL: QTVVTQEPSFSVSPGGTVTLTCGLSSGSVSTSYYPSWYQQTPGQAPRTLIYSTNTRQSGVPDRFSGSILGNKAALTITGAQADDESDYYCLLYMGPGISYVFGTGTKVTVL
notes: Fab made in E. coli: VH in plasmid A (CH1, His6 and Flag tags), VL in plasmid E (lambda CL); also called H:KT TRV & L:LP S57Q
B2: Fab VH5-51_IGHD5-18*01>3_IGHJ4*01 G100K/G104T G24T/S28R/G35V (H:KT TRV) & V3-4_IGLJ1*01 V91L/S96P S57V (Fab, V domains shown)
VH: EVQLVQSGAEVKKPGESLKISCKTSGYRFTSYWIVWVRQMPGKGLEWMGIIYPGDSDTRYSPSFQGQVTISADKSISTAYLQWSSLKASDTAMYYCARRKYSYTYDYFDYWGQGTLVTVSS
VL: QTVVTQEPSFSVSPGGTVTLTCGLSSGSVSTSYYPSWYQQTPGQAPRTLIYSTNTRVSGVPDRFSGSILGNKAALTITGAQADDESDYYCLLYMGPGISYVFGTGTKVTVL
notes: Fab made in E. coli: VH in plasmid A (CH1, His6 and Flag tags), VL in plasmid E (lambda CL); also called H:KT TRV & L:LP S57V
B3: Fab VH5-51_IGHD5-18*01>3_IGHJ4*01 G100K/G104T G24T/S28R/G35V (H:KT TRV) & V3-4_IGLJ1*01 V91L/S96P S57W (Fab, V domains shown)
VH: EVQLVQSGAEVKKPGESLKISCKTSGYRFTSYWIVWVRQMPGKGLEWMGIIYPGDSDTRYSPSFQGQVTISADKSISTAYLQWSSLKASDTAMYYCARRKYSYTYDYFDYWGQGTLVTVSS
VL: QTVVTQEPSFSVSPGGTVTLTCGLSSGSVSTSYYPSWYQQTPGQAPRTLIYSTNTRWSGVPDRFSGSILGNKAALTITGAQADDESDYYCLLYMGPGISYVFGTGTKVTVL
notes: Fab made in E. coli: VH in plasmid A (CH1, His6 and Flag tags), VL in plasmid E (lambda CL); also called H:KT TRV & L:LP S57W
B4: Fab VH5-51_IGHD5-18*01>3_IGHJ4*01 G100K/G104T G24T/S28R/G35V (H:KT TRV) & V3-4_IGLJ1*01 V91L/S96P S57R (Fab, V domains shown)
VH: EVQLVQSGAEVKKPGESLKISCKTSGYRFTSYWIVWVRQMPGKGLEWMGIIYPGDSDTRYSPSFQGQVTISADKSISTAYLQWSSLKASDTAMYYCARRKYSYTYDYFDYWGQGTLVTVSS
VL: QTVVTQEPSFSVSPGGTVTLTCGLSSGSVSTSYYPSWYQQTPGQAPRTLIYSTNTRRSGVPDRFSGSILGNKAALTITGAQADDESDYYCLLYMGPGISYVFGTGTKVTVL
notes: Fab made in E. coli: VH in plasmid A (CH1, His6 and Flag tags), VL in plasmid E (lambda CL); also called H:KT TRV & L:LP S57R
B5: Fab VH5-51_IGHD5-18*01>3_IGHJ4*01 G100K/G104T G24T/S28R/G35V (H:KT TRV) & V3-4_IGLJ1*01 V91L/S96P T53G (Fab, V domains shown)
VH: EVQLVQSGAEVKKPGESLKISCKTSGYRFTSYWIVWVRQMPGKGLEWMGIIYPGDSDTRYSPSFQGQVTISADKSISTAYLQWSSLKASDTAMYYCARRKYSYTYDYFDYWGQGTLVTVSS
VL: QTVVTQEPSFSVSPGGTVTLTCGLSSGSVSTSYYPSWYQQTPGQAPRTLIYSGNTRSSGVPDRFSGSILGNKAALTITGAQADDESDYYCLLYMGPGISYVFGTGTKVTVL
notes: Fab made in E. coli: VH in plasmid A (CH1, His6 and Flag tags), VL in plasmid E (lambda CL); also called H:KT TRV & L:LP T53G
B6: Fab VH5-51_IGHD5-18*01>3_IGHJ4*01 G100K/G104T G24T/S28R/G35V (H:KT TRV) & V3-4_IGLJ1*01 V91L/S96P T53R (Fab, V domains shown)
VH: EVQLVQSGAEVKKPGESLKISCKTSGYRFTSYWIVWVRQMPGKGLEWMGIIYPGDSDTRYSPSFQGQVTISADKSISTAYLQWSSLKASDTAMYYCARRKYSYTYDYFDYWGQGTLVTVSS
VL: QTVVTQEPSFSVSPGGTVTLTCGLSSGSVSTSYYPSWYQQTPGQAPRTLIYSRNTRSSGVPDRFSGSILGNKAALTITGAQADDESDYYCLLYMGPGISYVFGTGTKVTVL
notes: Fab made in E. coli: VH in plasmid A (CH1, His6 and Flag tags), VL in plasmid E (lambda CL); also called H:KT TRV & L:LP T53R
B7: Fab VH5-51_IGHD5-18*01>3_IGHJ4*01 G100K/G104T G24T/S28R/G35V (H:KT TRV) & V3-4_IGLJ1*01 V91L/S96P S57T (Fab, V domains shown)
VH: EVQLVQSGAEVKKPGESLKISCKTSGYRFTSYWIVWVRQMPGKGLEWMGIIYPGDSDTRYSPSFQGQVTISADKSISTAYLQWSSLKASDTAMYYCARRKYSYTYDYFDYWGQGTLVTVSS
VL: QTVVTQEPSFSVSPGGTVTLTCGLSSGSVSTSYYPSWYQQTPGQAPRTLIYSTNTRTSGVPDRFSGSILGNKAALTITGAQADDESDYYCLLYMGPGISYVFGTGTKVTVL
notes: Fab made in E. coli: VH in plasmid A (CH1, His6 and Flag tags), VL in plasmid E (lambda CL); also called H:KT TRV & L:LP S57T
B8: Fab VH5-51_IGHD5-18*01>3_IGHJ4*01 G100K/G104T G24T/S28R/G35V (H:KT TRV) & V3-4_IGLJ1*01 V91L/S96P S57Y (Fab, V domains shown)
VH: EVQLVQSGAEVKKPGESLKISCKTSGYRFTSYWIVWVRQMPGKGLEWMGIIYPGDSDTRYSPSFQGQVTISADKSISTAYLQWSSLKASDTAMYYCARRKYSYTYDYFDYWGQGTLVTVSS
VL: QTVVTQEPSFSVSPGGTVTLTCGLSSGSVSTSYYPSWYQQTPGQAPRTLIYSTNTRYSGVPDRFSGSILGNKAALTITGAQADDESDYYCLLYMGPGISYVFGTGTKVTVL
notes: Fab made in E. coli: VH in plasmid A (CH1, His6 and Flag tags), VL in plasmid E (lambda CL); also called H:KT TRV & L:LP S57Y
B9: Fab VH5-51_IGHD5-18*01>3_IGHJ4*01 G100K/G104T G24T/S28R/G35V (H:KT TRV) & V3-4_IGLJ1*01 V91L/S96P T53W (Fab, V domains shown)
VH: EVQLVQSGAEVKKPGESLKISCKTSGYRFTSYWIVWVRQMPGKGLEWMGIIYPGDSDTRYSPSFQGQVTISADKSISTAYLQWSSLKASDTAMYYCARRKYSYTYDYFDYWGQGTLVTVSS
VL: QTVVTQEPSFSVSPGGTVTLTCGLSSGSVSTSYYPSWYQQTPGQAPRTLIYSWNTRSSGVPDRFSGSILGNKAALTITGAQADDESDYYCLLYMGPGISYVFGTGTKVTVL
notes: Fab made in E. coli: VH in plasmid A (CH1, His6 and Flag tags), VL in plasmid E (lambda CL); also called H:KT TRV & L:LP T53W

Biological target: T1, Recombinant Human DLL4 (delta-like protein 4) (human, UniProt Q9NR61 27-524)
T1 construct: Bought recombinant human DLL4 (R&D Systems Cat#1506-D4/CF) coated on the ELISA plate; also called rHuman DLL4; Delta-like ligand 4
Assay: ELISA, DLL4 coated on plate, 100 nM Fab

Binder	ELISA Signal-blank (100 nM Fab)
B1	0.21
B2	0.34
B3	0.12
B4	0.18
B5	0.08
B6	0.05
B7	0.3
B8	0.28
B9	0.06
